Laboratory results reported in US20140087995A1 (published 2014).
Numbered stars: 1 amine (or outer) side, 2 acyl side, 3 side chain; on linkers, the order of the positions; unused ones are H or OH. Bridge positions count the residues as written; N and C are the ends. * marks the point of attachment. C20 diacid = O=C(O)CCCCCCCCCCCCCCCCCCC(=O)*; γGlu = O=C(O)[C@H](CCC(=O)[*:2])N[*:1]

T1: human calcitonin receptor (human, UniProt P30988 25-474)
T1 sequence (looked up): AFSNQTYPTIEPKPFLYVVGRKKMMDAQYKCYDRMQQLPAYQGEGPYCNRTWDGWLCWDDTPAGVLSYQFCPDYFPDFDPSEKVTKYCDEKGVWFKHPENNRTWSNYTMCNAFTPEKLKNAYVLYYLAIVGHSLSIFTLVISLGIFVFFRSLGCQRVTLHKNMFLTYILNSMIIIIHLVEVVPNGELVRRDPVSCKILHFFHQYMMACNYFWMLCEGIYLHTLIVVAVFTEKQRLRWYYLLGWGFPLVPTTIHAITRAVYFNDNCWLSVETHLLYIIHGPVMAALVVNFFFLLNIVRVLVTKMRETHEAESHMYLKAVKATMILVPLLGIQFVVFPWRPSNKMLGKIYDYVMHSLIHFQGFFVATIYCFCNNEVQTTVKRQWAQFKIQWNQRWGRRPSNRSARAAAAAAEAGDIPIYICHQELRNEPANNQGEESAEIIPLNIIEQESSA


The binders below were run against T1, human calcitonin receptor (assay: cell-based or functional assay).

Row | Binder | hCTR funct. EC50 [nM]
1 | {C20 diacid-γGlu}-KCNTATCATQRLANFLRHSSPNFGAIPSSTNVGPETY-NH2 (disulfide 2-7; SMILES CC[C@H](C)[C@H](NC(=O)[C@H](C)NC(=O)CNC(=O)[C@H](Cc1ccccc1)NC(=O)[C@H](CC(N)=O)NC(=O)[C@@H]1CCCN1C(=O)[C@H](CO)NC(=O)[C@H](CO)NC(=O)[C@H](Cc1c[nH]cn1)NC(=O)[C@H](CCCNC(=N)N)NC(=O)[C@H](CC(C)C)NC(=O)[C@H](Cc1ccccc1)NC(=O)[C@H](CC(N)=O)NC(=O)[C@H](C)NC(=O)[C@H](CC(C)C)NC(=O)[C@H](CCCNC(=N)N)NC(=O)[C@H](CCC(N)=O)NC(=O)[C@@H](NC(=O)[C@H](C)NC(=O)[C@@H]1CSSC[C@H](NC(=O)[C@H](CCCCN)NC(=O)CC[C@H](NC(=O)CCCCCCCCCCCCCCCCCCC(=O)O)C(=O)O)C(=O)N[C@@H](CC(N)=O)C(=O)N[C@@H]([C@@H](C)O)C(=O)N[C@@H](C)C(=O)N[C@@H]([C@@H](C)O)C(=O)N1)[C@@H](C)O)C(=O)N1CCC[C@H]1C(=O)N[C@@H](CO)C(=O)N[C@@H](CO)C(=O)N[C@H](C(=O)N[C@@H](CC(N)=O)C(=O)N[C@H](C(=O)NCC(=O)N1CCC[C@H]1C(=O)N[C@@H](CCC(=O)O)C(=O)N[C@H](C(=O)N[C@@H](Cc1ccc(O)cc1)C(N)=O)[C@@H](C)O)C(C)C)[C@@H](C)O, h-amylin derivative; disulfide bridge and C-terminal amide as told for human amylin; also called compound 29) | 0.857
2 | {C20 diacid-γGlu}-KCNTATCATQRLAEFLRHSSPNFGAIPSSTPVGSNTY-NH2 (disulfide 2-7; SMILES CC[C@H](C)[C@H](NC(=O)[C@H](C)NC(=O)CNC(=O)[C@H](Cc1ccccc1)NC(=O)[C@H](CC(N)=O)NC(=O)[C@@H]1CCCN1C(=O)[C@H](CO)NC(=O)[C@H](CO)NC(=O)[C@H](Cc1c[nH]cn1)NC(=O)[C@H](CCCNC(=N)N)NC(=O)[C@H](CC(C)C)NC(=O)[C@H](Cc1ccccc1)NC(=O)[C@H](CCC(=O)O)NC(=O)[C@H](C)NC(=O)[C@H](CC(C)C)NC(=O)[C@H](CCCNC(=N)N)NC(=O)[C@H](CCC(N)=O)NC(=O)[C@@H](NC(=O)[C@H](C)NC(=O)[C@@H]1CSSC[C@H](NC(=O)[C@H](CCCCN)NC(=O)CC[C@H](NC(=O)CCCCCCCCCCCCCCCCCCC(=O)O)C(=O)O)C(=O)N[C@@H](CC(N)=O)C(=O)N[C@@H]([C@@H](C)O)C(=O)N[C@@H](C)C(=O)N[C@@H]([C@@H](C)O)C(=O)N1)[C@@H](C)O)C(=O)N1CCC[C@H]1C(=O)N[C@@H](CO)C(=O)N[C@@H](CO)C(=O)N[C@H](C(=O)N1CCC[C@H]1C(=O)N[C@H](C(=O)NCC(=O)N[C@@H](CO)C(=O)N[C@@H](CC(N)=O)C(=O)N[C@H](C(=O)N[C@@H](Cc1ccc(O)cc1)C(N)=O)[C@@H](C)O)C(C)C)[C@@H](C)O, h-amylin derivative; disulfide bridge and C-terminal amide as told for human amylin; also called compound 31) | 0.717
3 | {C20 diacid-γGlu}-KCNTATCATQRLAEFLRHSSPNFGAIPSSTNVGSRTY-NH2 (disulfide 2-7; SMILES CC[C@H](C)[C@H](NC(=O)[C@H](C)NC(=O)CNC(=O)[C@H](Cc1ccccc1)NC(=O)[C@H](CC(N)=O)NC(=O)[C@@H]1CCCN1C(=O)[C@H](CO)NC(=O)[C@H](CO)NC(=O)[C@H](Cc1c[nH]cn1)NC(=O)[C@H](CCCNC(=N)N)NC(=O)[C@H](CC(C)C)NC(=O)[C@H](Cc1ccccc1)NC(=O)[C@H](CCC(=O)O)NC(=O)[C@H](C)NC(=O)[C@H](CC(C)C)NC(=O)[C@H](CCCNC(=N)N)NC(=O)[C@H](CCC(N)=O)NC(=O)[C@@H](NC(=O)[C@H](C)NC(=O)[C@@H]1CSSC[C@H](NC(=O)[C@H](CCCCN)NC(=O)CC[C@H](NC(=O)CCCCCCCCCCCCCCCCCCC(=O)O)C(=O)O)C(=O)N[C@@H](CC(N)=O)C(=O)N[C@@H]([C@@H](C)O)C(=O)N[C@@H](C)C(=O)N[C@@H]([C@@H](C)O)C(=O)N1)[C@@H](C)O)C(=O)N1CCC[C@H]1C(=O)N[C@@H](CO)C(=O)N[C@@H](CO)C(=O)N[C@H](C(=O)N[C@@H](CC(N)=O)C(=O)N[C@H](C(=O)NCC(=O)N[C@@H](CO)C(=O)N[C@@H](CCCNC(=N)N)C(=O)N[C@H](C(=O)N[C@@H](Cc1ccc(O)cc1)C(N)=O)[C@@H](C)O)C(C)C)[C@@H](C)O, h-amylin derivative; disulfide bridge and C-terminal amide as told for human amylin; also called compound 16) | 2.21
4 | {C20 diacid-γGlu}-KCNTATCATQRLAHFLRHSSPNFGAIPSSTNVGSETY-NH2 (disulfide 2-7; SMILES CC[C@H](C)[C@H](NC(=O)[C@H](C)NC(=O)CNC(=O)[C@H](Cc1ccccc1)NC(=O)[C@H](CC(N)=O)NC(=O)[C@@H]1CCCN1C(=O)[C@H](CO)NC(=O)[C@H](CO)NC(=O)[C@H](Cc1c[nH]cn1)NC(=O)[C@H](CCCNC(=N)N)NC(=O)[C@H](CC(C)C)NC(=O)[C@H](Cc1ccccc1)NC(=O)[C@H](Cc1c[nH]cn1)NC(=O)[C@H](C)NC(=O)[C@H](CC(C)C)NC(=O)[C@H](CCCNC(=N)N)NC(=O)[C@H](CCC(N)=O)NC(=O)[C@@H](NC(=O)[C@H](C)NC(=O)[C@@H]1CSSC[C@H](NC(=O)[C@H](CCCCN)NC(=O)CC[C@H](NC(=O)CCCCCCCCCCCCCCCCCCC(=O)O)C(=O)O)C(=O)N[C@@H](CC(N)=O)C(=O)N[C@@H]([C@@H](C)O)C(=O)N[C@@H](C)C(=O)N[C@@H]([C@@H](C)O)C(=O)N1)[C@@H](C)O)C(=O)N1CCC[C@H]1C(=O)N[C@@H](CO)C(=O)N[C@@H](CO)C(=O)N[C@H](C(=O)N[C@@H](CC(N)=O)C(=O)N[C@H](C(=O)NCC(=O)N[C@@H](CO)C(=O)N[C@@H](CCC(=O)O)C(=O)N[C@H](C(=O)N[C@@H](Cc1ccc(O)cc1)C(N)=O)[C@@H](C)O)C(C)C)[C@@H](C)O, h-amylin derivative; disulfide bridge and C-terminal amide as told for human amylin; also called compound 30) | 1.68
5 | {C20 diacid-γGlu}-KCNTATCATQRLAEFLRHSSPNFGAIPSSTNVGHNTY-NH2 (disulfide 2-7; SMILES CC[C@H](C)[C@H](NC(=O)[C@H](C)NC(=O)CNC(=O)[C@H](Cc1ccccc1)NC(=O)[C@H](CC(N)=O)NC(=O)[C@@H]1CCCN1C(=O)[C@H](CO)NC(=O)[C@H](CO)NC(=O)[C@H](Cc1c[nH]cn1)NC(=O)[C@H](CCCNC(=N)N)NC(=O)[C@H](CC(C)C)NC(=O)[C@H](Cc1ccccc1)NC(=O)[C@H](CCC(=O)O)NC(=O)[C@H](C)NC(=O)[C@H](CC(C)C)NC(=O)[C@H](CCCNC(=N)N)NC(=O)[C@H](CCC(N)=O)NC(=O)[C@@H](NC(=O)[C@H](C)NC(=O)[C@@H]1CSSC[C@H](NC(=O)[C@H](CCCCN)NC(=O)CC[C@H](NC(=O)CCCCCCCCCCCCCCCCCCC(=O)O)C(=O)O)C(=O)N[C@@H](CC(N)=O)C(=O)N[C@@H]([C@@H](C)O)C(=O)N[C@@H](C)C(=O)N[C@@H]([C@@H](C)O)C(=O)N1)[C@@H](C)O)C(=O)N1CCC[C@H]1C(=O)N[C@@H](CO)C(=O)N[C@@H](CO)C(=O)N[C@H](C(=O)N[C@@H](CC(N)=O)C(=O)N[C@H](C(=O)NCC(=O)N[C@@H](Cc1c[nH]cn1)C(=O)N[C@@H](CC(N)=O)C(=O)N[C@H](C(=O)N[C@@H](Cc1ccc(O)cc1)C(N)=O)[C@@H](C)O)C(C)C)[C@@H](C)O, h-amylin derivative; disulfide bridge and C-terminal amide as told for human amylin; also called compound 17) | 2.35
6 | {C20 diacid-γGlu}-KCNTATCATQRLAEFLRHSSPNFGAIPSSTNVGPNTY-NH2 (disulfide 2-7; SMILES CC[C@H](C)[C@H](NC(=O)[C@H](C)NC(=O)CNC(=O)[C@H](Cc1ccccc1)NC(=O)[C@H](CC(N)=O)NC(=O)[C@@H]1CCCN1C(=O)[C@H](CO)NC(=O)[C@H](CO)NC(=O)[C@H](Cc1c[nH]cn1)NC(=O)[C@H](CCCNC(=N)N)NC(=O)[C@H](CC(C)C)NC(=O)[C@H](Cc1ccccc1)NC(=O)[C@H](CCC(=O)O)NC(=O)[C@H](C)NC(=O)[C@H](CC(C)C)NC(=O)[C@H](CCCNC(=N)N)NC(=O)[C@H](CCC(N)=O)NC(=O)[C@@H](NC(=O)[C@H](C)NC(=O)[C@@H]1CSSC[C@H](NC(=O)[C@H](CCCCN)NC(=O)CC[C@H](NC(=O)CCCCCCCCCCCCCCCCCCC(=O)O)C(=O)O)C(=O)N[C@@H](CC(N)=O)C(=O)N[C@@H]([C@@H](C)O)C(=O)N[C@@H](C)C(=O)N[C@@H]([C@@H](C)O)C(=O)N1)[C@@H](C)O)C(=O)N1CCC[C@H]1C(=O)N[C@@H](CO)C(=O)N[C@@H](CO)C(=O)N[C@H](C(=O)N[C@@H](CC(N)=O)C(=O)N[C@H](C(=O)NCC(=O)N1CCC[C@H]1C(=O)N[C@@H](CC(N)=O)C(=O)N[C@H](C(=O)N[C@@H](Cc1ccc(O)cc1)C(N)=O)[C@@H](C)O)C(C)C)[C@@H](C)O, h-amylin derivative; disulfide bridge and C-terminal amide as told for human amylin; also called compound 32) | 0.327
